# According to the supplement of paper PMC9112550, “Optimization of the antimicrobial peptide Bac7 by deep mutational scanning” (BMC Biology, 2022):
# Test system: Escherichia coli TOP10
# Experiment: shrunken log2 fold change of peptide-encoding DNA abundance (4.5 h post-induction vs induction); higher = less antimicrobial activity (less host growth inhibition)
# Settings: time post-induction: 4.5 h; library: site-saturation at positions 5, 18, 19, 20
# 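Note: peptides expressed intracellularly from a pBAD plasmid library in pooled LB shake-flask culture, induced with 0.3% L-arabinose, DNA abundance read by NGS, three biological replicates, DESeq2 with apeglm shrinkage.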
row,Sequence,shrunken log2 fold change
1,RRIRTRPPRLPRPRPRPGFEPRP,0.613
2,RRIRYRPPRLPRPRPRPWYCPRP,-1.12
3,RRIRPRPPRLPRPRPRPVKRPRP,-0.171
4,RRIRLRPPRLPRPRPRPHARPRP,0.416
5,RRIRPRPPRLPRPRPRPTFVPRP,0.012
6,RRIRSRPPRLPRPRPRPEGEPRP,0.809
7,RRIRHRPPRLPRPRPRPIIFPRP,-0.249
8,RRIRPRPPRLPRPRPRPIMTPRP,0.0516
9,RRIRKRPPRLPRPRPRPMKGPRP,-0.156
10,RRIRRRPPRLPRPRPRPTGMPRP,0.906
11,RRIRRRPPRLPRPRPRPRSFPRP,0.401
12,RRIRGRPPRLPRPRPRPDRDPRP,0.326
13,RRIRGRPPRLPRPRPRPMCRPRP,0.393
14,RRIRARPPRLPRPRPRPYHFPRP,-0.186
15,RRIRRRPPRLPRPRPRPIHDPRP,0.169
16,RRIRHRPPRLPRPRPRPRLGPRP,0.143
17,RRIRCRPPRLPRPRPRPSYHPRP,0.811
18,RRIRWRPPRLPRPRPRPGDFPRP,0.564
19,RRIRNRPPRLPRPRPRPCLFPRP,-0.608
20,RRIRIRPPRLPRPRPRPRQSPRP,0.065
21,RRIRVRPPRLPRPRPRPAVHPRP,-0.021
22,RRIRKRPPRLPRPRPRPGFRPRP,0.942
23,RRIRYRPPRLPRPRPRPMNDPRP,-0.188
24,RRIRFRPPRLPRPRPRPMQMPRP,0.142
25,RRIRSRPPRLPRPRPRPDIMPRP,-0.661

row,Sequence,shrunken log2 fold change
1,RRIRGRPPRLPRPRPRPYMDPRP,-0.0735
2,RRIRWRPPRLPRPRPRPSLRPRP,0.0372
3,RRIRGRPPRLPRPRPRPPPAPRP,1.57
4,RRIRARPPRLPRPRPRPSIQPRP,-0.119
5,RRIRVRPPRLPRPRPRPSGEPRP,0.0818
6,RRIRHRPPRLPRPRPRPQLVPRP,-0.0576
7,RRIRWRPPRLPRPRPRPHKQPRP,-0.0365
8,RRIRSRPPRLPRPRPRPYHWPRP,-0.479
9,RRIRERPPRLPRPRPRPFMIPRP,-0.768
10,RRIRCRPPRLPRPRPRPGIEPRP,-0.0627
11,RRIRTRPPRLPRPRPRPWNKPRP,-0.594
12,RRIRDRPPRLPRPRPRPCRKPRP,-0.00804
13,RRIRYRPPRLPRPRPRPAEVPRP,-0.0361
14,RRIRERPPRLPRPRPRPKLEPRP,-0.0117
15,RRIRRRPPRLPRPRPRPSVGPRP,0.171
16,RRIRMRPPRLPRPRPRPAWFPRP,0.634
17,RRIRERPPRLPRPRPRPVSLPRP,-0.013
18,RRIRHRPPRLPRPRPRPKHMPRP,-0.0234
19,RRIRMRPPRLPRPRPRPRTAPRP,1.29
20,RRIRSRPPRLPRPRPRPLGVPRP,0.0588
21,RRIRSRPPRLPRPRPRPRGHPRP,-0.0222
22,RRIRERPPRLPRPRPRPEKSPRP,-0.14
23,RRIRCRPPRLPRPRPRPTCVPRP,-0.0603
24,RRIRARPPRLPRPRPRPEVDPRP,0.935
25,RRIRTRPPRLPRPRPRPMTNPRP,-0.138

row,Sequence,shrunken log2 fold change
1,RRIRHRPPRLPRPRPRPQQDPRP,-0.147
2,RRIRDRPPRLPRPRPRPDRMPRP,-0.00945
3,RRIRIRPPRLPRPRPRPNSFPRP,-0.391
4,RRIRHRPPRLPRPRPRPVRDPRP,0.298
5,RRIRNRPPRLPRPRPRPWIIPRP,-0.429
6,RRIRWRPPRLPRPRPRPHAEPRP,0.0375
7,RRIRMRPPRLPRPRPRPYMTPRP,-0.178
8,RRIRLRPPRLPRPRPRPWCEPRP,-0.271
9,RRIRLRPPRLPRPRPRPHWNPRP,-0.315
10,RRIRERPPRLPRPRPRPCIIPRP,-0.449
11,RRIRLRPPRLPRPRPRPKISPRP,-0.0626
12,RRIRWRPPRLPRPRPRPPGEPRP,0.625
13,RRIRSRPPRLPRPRPRPGRPPRP,0.245
14,RRIRWRPPRLPRPRPRPFYPPRP,-0.239
15,RRIRERPPRLPRPRPRPEWRPRP,0.334
16,RRIRFRPPRLPRPRPRPFGEPRP,0.135
17,RRIRSRPPRLPRPRPRPSINPRP,-0.567
18,RRIRYRPPRLPRPRPRPTRLPRP,0.262
19,RRIRRRPPRLPRPRPRPCRCPRP,-0.00341
20,RRIRCRPPRLPRPRPRPILSPRP,-0.362
21,RRIRGRPPRLPRPRPRPKEAPRP,0.948
22,RRIRLRPPRLPRPRPRPTTAPRP,0.115
23,RRIRNRPPRLPRPRPRPKDQPRP,-0.108
24,RRIRARPPRLPRPRPRPGCSPRP,0.505
25,RRIRVRPPRLPRPRPRPGSGPRP,0.0303

row,Sequence,shrunken log2 fold change
1,RRIRIRPPRLPRPRPRPCICPRP,-0.148
2,RRIRCRPPRLPRPRPRPHADPRP,0.145
3,RRIRKRPPRLPRPRPRPHELPRP,0.509
4,RRIRCRPPRLPRPRPRPGMRPRP,0.532
5,RRIRIRPPRLPRPRPRPPYFPRP,-0.25
6,RRIRMRPPRLPRPRPRPWFFPRP,-0.0229
7,RRIRERPPRLPRPRPRPLIKPRP,-0.12
8,RRIRIRPPRLPRPRPRPPMVPRP,-0.572
9,RRIRHRPPRLPRPRPRPIRMPRP,-0.217
10,RRIRQRPPRLPRPRPRPPADPRP,0.362
11,RRIRWRPPRLPRPRPRPMWGPRP,0.117
12,RRIRIRPPRLPRPRPRPNLHPRP,-0.623
13,RRIRVRPPRLPRPRPRPWWKPRP,0.0375
14,RRIRHRPPRLPRPRPRPVQWPRP,0.0118
15,RRIRNRPPRLPRPRPRPIYDPRP,-0.4
16,RRIRKRPPRLPRPRPRPEHHPRP,-0.0888
17,RRIRQRPPRLPRPRPRPVSNPRP,-0.0478
18,RRIRTRPPRLPRPRPRPVNDPRP,0.0249
19,RRIRYRPPRLPRPRPRPHNMPRP,-0.17
20,RRIRWRPPRLPRPRPRPPLCPRP,0.668
21,RRIRWRPPRLPRPRPRPIRHPRP,-0.252
22,RRIRWRPPRLPRPRPRPQCLPRP,-0.073
23,RRIRVRPPRLPRPRPRPNYHPRP,-0.489
24,RRIRDRPPRLPRPRPRPHDGPRP,0.1
25,RRIRIRPPRLPRPRPRPNEEPRP,-0.179

row,Sequence,shrunken log2 fold change
1,RRIRARPPRLPRPRPRPDKKPRP,0.0318
2,RRIRTRPPRLPRPRPRPCLYPRP,-0.342
3,RRIRMRPPRLPRPRPRPWSQPRP,-0.189
4,RRIRVRPPRLPRPRPRPFYLPRP,-0.449
5,RRIRMRPPRLPRPRPRPMFTPRP,0.0379
6,RRIRYRPPRLPRPRPRPTVTPRP,-0.283
7,RRIRKRPPRLPRPRPRPPFQPRP,0.119
8,RRIRLRPPRLPRPRPRPLKQPRP,-0.0926
9,RRIRWRPPRLPRPRPRPHQCPRP,-0.112
10,RRIRGRPPRLPRPRPRPWFLPRP,-0.149
11,RRIRKRPPRLPRPRPRPEVTPRP,-0.0421
12,RRIRLRPPRLPRPRPRPVGKPRP,-0.0227
13,RRIRHRPPRLPRPRPRPTHNPRP,-0.211
14,RRIRVRPPRLPRPRPRPRDQPRP,-0.0604
15,RRIRMRPPRLPRPRPRPIHGPRP,0.0579
16,RRIRGRPPRLPRPRPRPCFDPRP,0.299
17,RRIRPRPPRLPRPRPRPDKDPRP,-0.173
18,RRIRKRPPRLPRPRPRPCGWPRP,0.179
19,RRIRWRPPRLPRPRPRPWHMPRP,0.219
20,RRIRARPPRLPRPRPRPMEGPRP,0.667
21,RRIRFRPPRLPRPRPRPQGTPRP,-0.068
22,RRIRARPPRLPRPRPRPSPNPRP,0.0681
23,RRIRARPPRLPRPRPRPFHTPRP,-0.0492
24,RRIRCRPPRLPRPRPRPFLFPRP,-0.291
25,RRIRSRPPRLPRPRPRPMDSPRP,-0.279

row,Sequence,shrunken log2 fold change
1,RRIRARPPRLPRPRPRPKRMPRP,0.258
2,RRIRLRPPRLPRPRPRPPVMPRP,0.154
3,RRIRNRPPRLPRPRPRPKELPRP,0.0238
4,RRIRLRPPRLPRPRPRPLSQPRP,0.00591
5,RRIRMRPPRLPRPRPRPATCPRP,0.398
6,RRIRLRPPRLPRPRPRPWPKPRP,-0.0141
7,RRIRHRPPRLPRPRPRPSPCPRP,-0.225
8,RRIRIRPPRLPRPRPRPWVFPRP,-0.397
9,RRIRDRPPRLPRPRPRPDKYPRP,-0.582
10,RRIRLRPPRLPRPRPRPIFTPRP,-0.206
11,RRIRRRPPRLPRPRPRPKMGPRP,-0.0227
12,RRIRERPPRLPRPRPRPFAHPRP,0.117
13,RRIRIRPPRLPRPRPRPWHAPRP,-0.0572
14,RRIRERPPRLPRPRPRPQHHPRP,-0.771
15,RRIRRRPPRLPRPRPRPRAIPRP,0.405
16,RRIRNRPPRLPRPRPRPYIEPRP,-0.275
17,RRIRHRPPRLPRPRPRPKTHPRP,-0.314
18,RRIRWRPPRLPRPRPRPSWMPRP,-0.0675
19,RRIRDRPPRLPRPRPRPQFMPRP,1.04
20,RRIRDRPPRLPRPRPRPAWMPRP,-0.0284
21,RRIRTRPPRLPRPRPRPSCLPRP,-0.624
22,RRIRNRPPRLPRPRPRPCKPPRP,-0.0414
23,RRIRYRPPRLPRPRPRPWCEPRP,-0.468
24,RRIRMRPPRLPRPRPRPWFLPRP,0.0242
25,RRIRLRPPRLPRPRPRPTPIPRP,0.3
